{"source": "patent US20170258870A1", "target": "myc-tagged LIMP-2", "assay": "cell-based or functional assay"}
{"substance": "wild-type β-glucocerebrosidase (GC), human, overexpressed in cells (from UniProt P04062 40-536) (enzyme)", "values": [{"measurement": "post-ER form of GC (EndoH resistance) on co-expression of LIMP-2", "result": 10, "unit": "fold"}]}
